Experimental data reported in patent US20190134153A1, “IMMUNOMODULATORY EFFECT OF INHALED KINASE INHIBITOR PEPTIDES IN LUNG” (MOERAE MATRIX, INC., priority 2017, published 2019).

Tests used:
Assay in all cases: Kinase Profiling Assay
Assay type in all cases: biochemical
Details in all cases: 100 μM
Rsk1(h) = Rsk1(h) (Homo sapiens, UniProt Q15418)
TBK1(h) = biological target: T1, TBK1(h) (Homo sapiens, UniProt Q9UHD2)
T1 sequence (Q9UHD2 1-729): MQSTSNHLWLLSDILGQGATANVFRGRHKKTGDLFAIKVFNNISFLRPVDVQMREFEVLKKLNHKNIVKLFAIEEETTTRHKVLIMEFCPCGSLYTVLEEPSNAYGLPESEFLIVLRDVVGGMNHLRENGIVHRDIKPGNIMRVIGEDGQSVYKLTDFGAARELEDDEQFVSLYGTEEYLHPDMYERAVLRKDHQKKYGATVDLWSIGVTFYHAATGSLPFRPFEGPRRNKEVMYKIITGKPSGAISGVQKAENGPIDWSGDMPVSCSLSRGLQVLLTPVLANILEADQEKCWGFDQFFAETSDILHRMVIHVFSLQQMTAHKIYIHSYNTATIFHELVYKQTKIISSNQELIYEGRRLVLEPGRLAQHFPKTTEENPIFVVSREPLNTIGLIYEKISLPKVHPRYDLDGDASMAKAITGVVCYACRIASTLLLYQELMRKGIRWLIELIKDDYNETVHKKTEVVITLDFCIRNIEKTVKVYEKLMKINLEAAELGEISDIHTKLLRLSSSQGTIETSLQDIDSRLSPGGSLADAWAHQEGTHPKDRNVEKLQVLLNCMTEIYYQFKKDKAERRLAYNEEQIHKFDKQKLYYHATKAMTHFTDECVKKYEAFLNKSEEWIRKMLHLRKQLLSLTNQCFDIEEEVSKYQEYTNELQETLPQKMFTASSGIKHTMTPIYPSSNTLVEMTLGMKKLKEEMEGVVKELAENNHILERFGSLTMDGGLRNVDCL

Hck(h) = Hck(h) (Homo sapiens, UniProt P08631)
SGK(h) = biological target: T2, SGK(h) (Homo sapiens, UniProt O00141)
T2 sequence (O00141 1-431): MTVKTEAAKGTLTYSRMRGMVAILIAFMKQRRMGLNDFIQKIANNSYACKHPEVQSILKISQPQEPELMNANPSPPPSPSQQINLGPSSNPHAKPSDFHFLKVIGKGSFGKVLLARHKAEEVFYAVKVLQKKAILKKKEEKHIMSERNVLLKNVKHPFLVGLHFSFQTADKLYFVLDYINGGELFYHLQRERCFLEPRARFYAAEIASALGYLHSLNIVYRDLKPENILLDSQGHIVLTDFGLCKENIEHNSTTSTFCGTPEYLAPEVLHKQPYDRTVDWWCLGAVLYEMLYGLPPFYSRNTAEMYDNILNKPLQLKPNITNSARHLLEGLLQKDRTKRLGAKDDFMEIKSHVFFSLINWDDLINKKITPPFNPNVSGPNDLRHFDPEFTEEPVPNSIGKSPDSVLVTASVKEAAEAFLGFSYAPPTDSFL

Tie2(h) = Tie2(h) (Homo sapiens, UniProt Q02763)
Sequence of Tie2(h) (Q02763 23-1124): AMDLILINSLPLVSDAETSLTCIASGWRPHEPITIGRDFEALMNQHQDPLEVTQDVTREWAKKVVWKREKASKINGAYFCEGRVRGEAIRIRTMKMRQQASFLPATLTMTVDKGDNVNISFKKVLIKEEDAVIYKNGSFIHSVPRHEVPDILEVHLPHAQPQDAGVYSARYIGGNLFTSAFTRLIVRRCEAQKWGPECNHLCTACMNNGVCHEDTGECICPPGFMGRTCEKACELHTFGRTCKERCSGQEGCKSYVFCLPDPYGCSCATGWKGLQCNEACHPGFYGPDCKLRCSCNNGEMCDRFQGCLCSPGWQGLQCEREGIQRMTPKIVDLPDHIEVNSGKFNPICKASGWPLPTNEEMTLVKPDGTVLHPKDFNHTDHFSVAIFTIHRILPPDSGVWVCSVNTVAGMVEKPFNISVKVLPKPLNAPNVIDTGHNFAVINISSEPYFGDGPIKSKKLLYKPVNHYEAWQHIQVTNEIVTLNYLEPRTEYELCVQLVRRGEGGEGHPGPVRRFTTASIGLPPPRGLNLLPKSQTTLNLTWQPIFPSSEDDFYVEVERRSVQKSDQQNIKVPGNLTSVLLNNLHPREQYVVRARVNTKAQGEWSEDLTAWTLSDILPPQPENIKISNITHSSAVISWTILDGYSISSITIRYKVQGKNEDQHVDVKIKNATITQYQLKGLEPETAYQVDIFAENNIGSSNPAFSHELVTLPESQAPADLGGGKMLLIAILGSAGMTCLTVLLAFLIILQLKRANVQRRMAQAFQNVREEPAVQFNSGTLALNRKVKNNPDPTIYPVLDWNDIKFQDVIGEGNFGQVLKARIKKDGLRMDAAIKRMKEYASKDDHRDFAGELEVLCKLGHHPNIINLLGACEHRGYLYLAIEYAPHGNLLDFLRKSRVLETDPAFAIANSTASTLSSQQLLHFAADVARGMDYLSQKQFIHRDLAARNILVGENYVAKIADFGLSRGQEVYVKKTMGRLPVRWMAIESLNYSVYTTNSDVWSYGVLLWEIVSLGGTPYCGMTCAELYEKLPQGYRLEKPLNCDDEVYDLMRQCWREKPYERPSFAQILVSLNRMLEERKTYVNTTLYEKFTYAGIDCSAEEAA

CDK1/cyclinB(h) = CDK1/cyclinB(h) (Homo sapiens, UniProt P06493)
Sequence of CDK1/cyclinB(h) (P06493 whole entry): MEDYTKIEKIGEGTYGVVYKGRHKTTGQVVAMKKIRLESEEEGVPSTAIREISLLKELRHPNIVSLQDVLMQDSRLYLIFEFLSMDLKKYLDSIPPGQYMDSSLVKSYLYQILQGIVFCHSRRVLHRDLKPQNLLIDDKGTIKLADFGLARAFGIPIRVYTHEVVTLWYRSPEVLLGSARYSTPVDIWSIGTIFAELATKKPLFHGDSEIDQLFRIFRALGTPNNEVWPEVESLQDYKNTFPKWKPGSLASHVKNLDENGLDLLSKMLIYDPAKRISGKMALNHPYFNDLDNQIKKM
Sequence of CDK1/cyclinB(h) (P14635 whole entry partner): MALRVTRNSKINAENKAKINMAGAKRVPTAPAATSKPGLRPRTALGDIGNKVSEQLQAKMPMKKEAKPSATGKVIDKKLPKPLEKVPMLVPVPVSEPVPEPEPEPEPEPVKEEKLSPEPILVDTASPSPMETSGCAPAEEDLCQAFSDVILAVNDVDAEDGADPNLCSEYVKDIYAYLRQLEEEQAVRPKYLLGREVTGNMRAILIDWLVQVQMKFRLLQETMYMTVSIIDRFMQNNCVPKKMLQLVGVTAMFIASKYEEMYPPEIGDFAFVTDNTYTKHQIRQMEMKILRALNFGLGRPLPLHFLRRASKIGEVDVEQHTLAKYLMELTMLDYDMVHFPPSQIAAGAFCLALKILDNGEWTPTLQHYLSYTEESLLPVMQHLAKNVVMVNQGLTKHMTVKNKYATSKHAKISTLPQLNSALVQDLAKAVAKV

ROCK-II(h) = ROCK-II(h) (Homo sapiens, UniProt O75116)
ALK4(h) = biological target: T3, ALK4(h) (Homo sapiens, UniProt P36896)
T3 sequence (P36896 24-505): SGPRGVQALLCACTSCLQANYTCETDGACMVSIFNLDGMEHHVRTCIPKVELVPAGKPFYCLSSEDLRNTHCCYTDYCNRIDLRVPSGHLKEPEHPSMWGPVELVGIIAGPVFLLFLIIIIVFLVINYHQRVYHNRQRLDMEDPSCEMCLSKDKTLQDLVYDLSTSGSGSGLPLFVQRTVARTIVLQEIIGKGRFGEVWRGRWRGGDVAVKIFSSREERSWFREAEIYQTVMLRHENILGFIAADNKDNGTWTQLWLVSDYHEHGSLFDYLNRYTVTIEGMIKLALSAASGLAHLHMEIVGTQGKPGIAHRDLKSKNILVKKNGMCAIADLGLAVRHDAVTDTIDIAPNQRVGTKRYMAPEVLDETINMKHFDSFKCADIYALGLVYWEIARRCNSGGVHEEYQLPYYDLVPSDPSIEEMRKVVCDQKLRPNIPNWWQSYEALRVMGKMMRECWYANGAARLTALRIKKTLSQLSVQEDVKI

CaMKIδ(h) = CaMKIδ(h) (Homo sapiens, UniProt Q8IU85)
Sequence of CaMKIδ(h) (Q8IU85 whole entry): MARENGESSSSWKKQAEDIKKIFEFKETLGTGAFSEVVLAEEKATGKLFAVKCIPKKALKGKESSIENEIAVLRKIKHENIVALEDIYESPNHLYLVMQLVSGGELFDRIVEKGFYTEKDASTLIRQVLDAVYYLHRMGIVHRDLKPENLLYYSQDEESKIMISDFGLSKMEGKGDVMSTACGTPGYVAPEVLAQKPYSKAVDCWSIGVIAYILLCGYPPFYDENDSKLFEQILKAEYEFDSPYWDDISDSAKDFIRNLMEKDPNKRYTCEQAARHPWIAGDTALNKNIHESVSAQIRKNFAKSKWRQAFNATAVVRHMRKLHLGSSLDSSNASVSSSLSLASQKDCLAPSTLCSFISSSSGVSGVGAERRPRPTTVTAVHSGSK

IR(h), activated = IR(h), activated (Homo sapiens, UniProt P06213)
ACK1(h) = ACK1(h) (Homo sapiens, UniProt Q07912)
Sequence of ACK1(h) (Q07912 whole entry): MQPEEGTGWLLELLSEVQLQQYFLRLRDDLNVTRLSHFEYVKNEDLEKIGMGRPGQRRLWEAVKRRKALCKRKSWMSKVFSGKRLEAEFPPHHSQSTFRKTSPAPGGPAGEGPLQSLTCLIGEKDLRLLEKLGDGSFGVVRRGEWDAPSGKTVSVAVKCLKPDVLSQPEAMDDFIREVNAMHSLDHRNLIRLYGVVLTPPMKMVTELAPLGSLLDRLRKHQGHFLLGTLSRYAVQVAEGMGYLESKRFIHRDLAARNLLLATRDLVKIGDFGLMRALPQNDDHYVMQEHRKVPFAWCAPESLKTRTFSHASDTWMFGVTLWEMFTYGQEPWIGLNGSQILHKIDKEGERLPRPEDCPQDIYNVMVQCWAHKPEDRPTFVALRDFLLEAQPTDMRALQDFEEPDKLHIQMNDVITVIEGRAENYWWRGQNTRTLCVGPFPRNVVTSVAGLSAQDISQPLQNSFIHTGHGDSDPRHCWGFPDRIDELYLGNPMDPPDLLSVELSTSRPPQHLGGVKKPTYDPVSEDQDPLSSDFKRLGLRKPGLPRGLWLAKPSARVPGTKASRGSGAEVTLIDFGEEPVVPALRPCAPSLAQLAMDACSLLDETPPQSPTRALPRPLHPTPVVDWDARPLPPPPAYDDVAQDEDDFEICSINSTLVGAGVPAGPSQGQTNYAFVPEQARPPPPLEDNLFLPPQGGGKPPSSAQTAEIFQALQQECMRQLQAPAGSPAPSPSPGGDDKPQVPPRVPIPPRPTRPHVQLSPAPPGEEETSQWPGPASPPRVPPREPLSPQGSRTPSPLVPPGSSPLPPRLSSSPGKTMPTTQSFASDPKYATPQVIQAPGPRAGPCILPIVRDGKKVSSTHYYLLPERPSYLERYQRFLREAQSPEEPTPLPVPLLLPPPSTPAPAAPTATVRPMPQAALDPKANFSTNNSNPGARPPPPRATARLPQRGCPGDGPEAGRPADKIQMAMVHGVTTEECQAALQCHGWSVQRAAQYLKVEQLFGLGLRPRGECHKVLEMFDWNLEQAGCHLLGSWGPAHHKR

TLK2(h) = TLK2(h) (Homo sapiens, UniProt Q86UE8)
Sequence of TLK2(h) (Q86UE8 whole entry): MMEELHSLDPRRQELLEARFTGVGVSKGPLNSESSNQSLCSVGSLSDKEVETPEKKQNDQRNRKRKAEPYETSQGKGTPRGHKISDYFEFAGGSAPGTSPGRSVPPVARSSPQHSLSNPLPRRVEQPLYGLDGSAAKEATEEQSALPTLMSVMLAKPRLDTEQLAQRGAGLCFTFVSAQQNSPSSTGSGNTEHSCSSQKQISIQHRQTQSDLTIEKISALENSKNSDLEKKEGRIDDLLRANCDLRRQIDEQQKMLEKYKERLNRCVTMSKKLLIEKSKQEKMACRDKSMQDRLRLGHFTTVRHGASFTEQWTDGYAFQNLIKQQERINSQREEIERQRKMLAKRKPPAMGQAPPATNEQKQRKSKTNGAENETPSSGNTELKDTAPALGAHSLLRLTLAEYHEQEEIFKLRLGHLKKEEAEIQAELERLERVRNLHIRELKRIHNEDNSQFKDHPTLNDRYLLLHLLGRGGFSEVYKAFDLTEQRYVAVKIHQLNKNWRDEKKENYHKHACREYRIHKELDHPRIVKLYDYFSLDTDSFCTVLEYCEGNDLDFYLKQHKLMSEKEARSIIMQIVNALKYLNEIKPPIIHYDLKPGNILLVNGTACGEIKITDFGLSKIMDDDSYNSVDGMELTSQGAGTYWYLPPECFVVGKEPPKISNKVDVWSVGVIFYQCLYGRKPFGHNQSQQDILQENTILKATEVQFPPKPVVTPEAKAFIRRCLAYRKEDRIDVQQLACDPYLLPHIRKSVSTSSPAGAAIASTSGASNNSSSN

Sequence of Rsk1(h) (Q15418 whole entry): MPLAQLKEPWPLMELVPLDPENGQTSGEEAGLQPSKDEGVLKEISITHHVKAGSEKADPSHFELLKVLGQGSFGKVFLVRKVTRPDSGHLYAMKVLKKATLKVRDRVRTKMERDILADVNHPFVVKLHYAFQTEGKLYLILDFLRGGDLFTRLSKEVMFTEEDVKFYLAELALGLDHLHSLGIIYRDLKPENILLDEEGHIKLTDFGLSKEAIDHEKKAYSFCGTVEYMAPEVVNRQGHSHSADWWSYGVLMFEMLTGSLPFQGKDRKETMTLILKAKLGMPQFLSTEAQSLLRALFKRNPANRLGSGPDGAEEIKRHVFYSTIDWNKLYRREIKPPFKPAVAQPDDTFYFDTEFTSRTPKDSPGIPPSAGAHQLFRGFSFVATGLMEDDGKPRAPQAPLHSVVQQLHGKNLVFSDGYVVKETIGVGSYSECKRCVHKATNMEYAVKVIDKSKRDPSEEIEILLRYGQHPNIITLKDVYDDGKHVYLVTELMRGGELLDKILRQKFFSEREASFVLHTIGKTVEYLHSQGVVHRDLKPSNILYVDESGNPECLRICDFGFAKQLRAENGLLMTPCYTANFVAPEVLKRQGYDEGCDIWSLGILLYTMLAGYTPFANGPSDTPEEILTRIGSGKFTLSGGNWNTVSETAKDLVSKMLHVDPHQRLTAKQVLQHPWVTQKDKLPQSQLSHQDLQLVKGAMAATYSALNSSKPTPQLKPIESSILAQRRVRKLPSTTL

Row | Sequence | % activity (Rsk1(h)) [%] | % activity (TBK1(h)) [%] | % activity (Hck(h)) [%] | % activity (SGK(h)) [%] | % activity (Tie2(h)) [%] | % activity (CDK1/cyclinB(h)) [%] | % activity (ROCK-II(h)) [%] | % activity (ALK4(h)) [%] | % activity (CaMKIδ(h)) [%] | % activity (IR(h), activated) [%] | % activity (ACK1(h)) [%] | % activity (TLK2(h)) [%]
1 | FAKLAARLYRKALARQLGVAA [MMI-0300] | 46 | 37 | 72 | 48 | 26 | 73 | 74 | 140 | 10 | 79 | – | –
2 | KAFAKLAARLYRKALARQLGVAA [MMI-0400] | 54 | 39 | 72 | 54 | 21 | 74 | 77 | 130 | 17 | 59 | 95 | 151
3 | YARAAARQARAKALNRQLGVA [MMI-0200] | – | 98 | – | – | 53 | – | 85 | 152 | 47 | – | 97 | 129
4 | HRRIKAWLKKIKALARQLGVAA [MMI-0500] | 34 | 16 | 78 | 2 | 22 | 57 | 2 | 81 | 0 | 90 | 64 | 133
